± gives the standard deviation of the averaged measurements.
Test: total protein half-life in vivo (active degradation + dilution); higher = more stable protein
[1] = E. coli NCM3722 delta-clpP delta-lon delta-hslV, growth: N-lim chemostat, doubling time 6 h
[2] = E. coli NCM3722 delta-clpP, growth: N-lim chemostat, doubling time 6 h
[3] = E. coli NCM3722 delta-hslV, growth: N-lim chemostat, doubling time 6 h
[4] = E. coli NCM3722 delta-lon, growth: N-lim chemostat, doubling time 6 h
[5] = E. coli NCM3722 delta-smpB, growth: N-lim chemostat, doubling time 6 h
[6] = wild type E. coli NCM3722, growth: C-lim chemostat, doubling time 3 h
[7] = wild type E. coli NCM3722, growth: C-lim chemostat, doubling time 6 h
[8] = wild type E. coli NCM3722, growth: C-lim chemostat, doubling time 12 h
[9] = wild type E. coli NCM3722, growth: N-lim chemostat, doubling time 6 h
[10] = wild type E. coli NCM3722, growth: N-lim chemostat, doubling time 12 h
[11] = wild type E. coli NCM3722, growth: P-lim chemostat, doubling time 6 h
[12] = wild type E. coli NCM3722, growth: P-lim chemostat, doubling time 12 h

MNIRPLHDRVIVKRKEVETKSAGGIVLTGSAAAKSTRGEVLAVGNGRILENGEVKPLDVKVGDIVIFNDGYGVKSEKIDNEEVLIMSESDILAIVEA [P0A6F9]
total protein half-life in vivo [1]: 5.5416 ± 0.005 h
total protein half-life in vivo [2]: 5.34 ± 0.43 h
total protein half-life in vivo [3]: 5.26 ± 0.4 h
total protein half-life in vivo [4]: 6.18 ± 0.9 h
total protein half-life in vivo [5]: 5.092 ± 0.02 h
total protein half-life in vivo [6]: 3.051 ± 0.0027 h
total protein half-life in vivo [7]: 6.27 ± 0.87 h
total protein half-life in vivo [8]: 10.6 ± 1.3 h
total protein half-life in vivo [9]: 5.03 ± 0.15 h
total protein half-life in vivo [10]: 8.21 ± 0.97 h
total protein half-life in vivo [11]: 5.36 ± 0.23 h
total protein half-life in vivo [12]: 12.5 ± 1.7 h

MLYKGDTLYLDWLEDGIAELVFDAPGSVNKLDTATVASLGEAIGVLEQQSDLKGLLLRSNKAAFIVGADITEFLSLFLVPEEQLSQWLHFANSVFNRLEDLPVPTIAAVNGYALGGGCECVLATDYRLATPDLRIGLPETKLGIMPGFGGSVRMPRMLGADSALEIIAAGKDVGADQALKIGLVDGVVKAEKLVEGAKAVLRQAINGDLDWKAKRQPKLEPLKLSKIEATMSFTIAKGMVAQTAGKHYPAPITAVKTIEAAARFGREEALNLENKSFVPLAHTNEARALVGIFLNDQYVKGKAKKLTKDVETPKQAAVLGAGIMGGGIAYQSAWKGVPVVMKDINDKSLTLGMTEAAKLLNKQLERGKIDGLKLAGVISTIHPTLDYAGFDRVDIVVEAVVENPKVKKAVLAETEQKVRQDTVLASNTSTIPISELANALERPENFCGMHFFNPVHRMPLVEIIRGEKSSDETIAKVVAWASKMGKTPIVVNDCPGFFVNRVLFPYFAGFSQLLRDGADFRKIDKVMEKQFGWPMGPAYLLDVVGIDTAHHAQAVMAAGFPQRMQKDYRDAIDALFDANRFGQKNGLGFWRYKEDSKGKPKKEEDAAVEDLLAEVSQPKRDFSEEEIIARMMIPMVNEVVRCLEEGIIATPAEADMALVYGLGFPPFHGGAFRWLDTLGSAKYLDMAQQYQHLGPLYEVPEGLRNKARHNEPYYPPVEPARPVGDLKTA
total protein half-life in vivo [1]: 4.12 ± 0.27 h
total protein half-life in vivo [2]: 3.24 ± 0.056 h
total protein half-life in vivo [3]: 3.02 ± 0.12 h
total protein half-life in vivo [4]: 3.8 ± 0.82 h
total protein half-life in vivo [5]: 3.27 ± 0.31 h
total protein half-life in vivo [6]: 2.93 ± 0.14 h
total protein half-life in vivo [7]: 4.89 ± 0.061 h
total protein half-life in vivo [8]: 8.047 ± 0.056 h
total protein half-life in vivo [9]: 3.34 ± 0.46 h
total protein half-life in vivo [10]: 4.71 ± 0.23 h
total protein half-life in vivo [11]: 5.3 ± 0.11 h
total protein half-life in vivo [12]: 9.82 ± 0.77 h

MKIVIAPDSYKESLSASEVAQAIEKGFREIFPDAQYVSVPVADGGEGTVEAMIAATQGAERHAWVTGPLGEKVNASWGISGDGKTAFIEMAAASGLELVPAEKRDPLVTTSRGTGELILQALESGATNIIIGIGGSATNDGGAGMVQALGAKLCDANGNEIGFGGGSLNTLNDIDISGLDPRLKDCVIRVACDVTNPLVGDNGASRIFGPQKGASEAMIVELDNNLSHYAEVIKKALHVDVKDVPGAGAAGGMGAALMAFLGAELKSGIEIVTTALNLEEHIHDCTLVITGEGRIDSQSIHGKVPIGVANVAKKYHKPVIGIAGSLTDDVGVVHQHGIDAVFSVLTSIGTLDEAFRGAYDNICRASRNIAATLAIGMRNAG
total protein half-life in vivo [1]: 3.21 ± 0.32 h
total protein half-life in vivo [2]: 2.26 ± 0.32 h
total protein half-life in vivo [4]: 2.05 h
total protein half-life in vivo [5]: 3.17 ± 1.2 h
total protein half-life in vivo [6]: 3.01 ± 0.68 h
total protein half-life in vivo [7]: 5.02 ± 1.3 h
total protein half-life in vivo [8]: 9.27 ± 0.37 h
total protein half-life in vivo [9]: 2.08 ± 0.076 h
total protein half-life in vivo [10]: 10.9 h
total protein half-life in vivo [11]: 5.89 ± 0.76 h
total protein half-life in vivo [12]: 10.4 ± 2.5 h

MAKEDNIEMQGTVLETLPNTMFRVELENGHVVTAHISGKMRKNYIRILTGDKVTVELTPYDLSKGRIVFRSR
total protein half-life in vivo [1]: 5.28 ± 0.3 h
total protein half-life in vivo [2]: 4.92 ± 1.1 h
total protein half-life in vivo [3]: 4.49 ± 0.57 h
total protein half-life in vivo [4]: 4.94 ± 0.23 h
total protein half-life in vivo [5]: 5.4 ± 0.28 h
total protein half-life in vivo [7]: 5.34 ± 0.62 h
total protein half-life in vivo [8]: 8.41 ± 0.61 h
total protein half-life in vivo [9]: 4.58 h
total protein half-life in vivo [10]: 8.98 ± 0.12 h
total protein half-life in vivo [11]: 4.93 ± 1.6 h
total protein half-life in vivo [12]: 9.85 ± 0.75 h

MRKLWNALRRPSARWSVLALVAIGIVIGIALIVLPHVGIKVTSTTEFCVSCHSMQPVYEEYKQSVHFQNASGVRAECHDCHIPPDIPGMVKRKLEASNDIYQTFIAHSIDTPEKFEAKRAELAEREWARMKENNSATCRSCHNYDAMDHAKQHPEAARQMKVAAKDNQSCIDCHKGIAHQLPDMSSGFRKQFDELRASANDSGDTLYSIDIKPIYAAKGDKEASGSLLPASEVKVLKRDGDWLQIEITGWTESAGRQRVLTQFPGKRIFVASIRGDVQQQVKTLEKTTVADTNTEWSKLQATAWMKKGDMVNDIKPIWAYADSLYNGTCNQCHGAPEIAHFDANGWIGTLNGMIGFTSLDKREERTLLKYLQMNASDTAGKAHGDKKEEK
total protein half-life in vivo [4]: 5.27 h
total protein half-life in vivo [10]: 9.72 h
total protein half-life in vivo [12]: 10.5 h
